Measurements published in article PMC13433802, “Structure of the NAT10 acetyltransferase and mechanism of tRNA acetylation” (Nature Communications, 2026).

Tests used:
[1] = molecular target: Chaetomium thermophilum NAT10 (CtNAT10), E. coli-produced recombinant (Chaetomium thermophilum); assay: mass photometry; 1 ul of 200 nM protein stock into 19 ul dilution buffer (10 nM); 300 mM NaCl, 25 mM Hepes-NaOH pH 7.5, 1 mM TCEP; room temperature
[2] = molecular target: Chaetomium thermophilum NAT10 (CtNAT10), Sf9-produced recombinant (Chaetomium thermophilum); assay: as above
[3] = molecular target: T1, CtNAT10 (Chaetomium thermophilum NAT10; Kre33) (Thermochaetoides thermophila, UniProt G0S273); assay: differential scanning fluorimetry, SYPRO orange; format: binding; settings: apo Tm 42.0 ± 0.3 °C, 5 mM MgCl2, Hepes pH 7.5, Tm with ligand, not a shift
T1 construct: codon-optimised synthetic gene; Sf9 (functional assays and 9B0I) or E. coli (9AYM, 9B0E)
T1 sequence (G0S273 1-1073): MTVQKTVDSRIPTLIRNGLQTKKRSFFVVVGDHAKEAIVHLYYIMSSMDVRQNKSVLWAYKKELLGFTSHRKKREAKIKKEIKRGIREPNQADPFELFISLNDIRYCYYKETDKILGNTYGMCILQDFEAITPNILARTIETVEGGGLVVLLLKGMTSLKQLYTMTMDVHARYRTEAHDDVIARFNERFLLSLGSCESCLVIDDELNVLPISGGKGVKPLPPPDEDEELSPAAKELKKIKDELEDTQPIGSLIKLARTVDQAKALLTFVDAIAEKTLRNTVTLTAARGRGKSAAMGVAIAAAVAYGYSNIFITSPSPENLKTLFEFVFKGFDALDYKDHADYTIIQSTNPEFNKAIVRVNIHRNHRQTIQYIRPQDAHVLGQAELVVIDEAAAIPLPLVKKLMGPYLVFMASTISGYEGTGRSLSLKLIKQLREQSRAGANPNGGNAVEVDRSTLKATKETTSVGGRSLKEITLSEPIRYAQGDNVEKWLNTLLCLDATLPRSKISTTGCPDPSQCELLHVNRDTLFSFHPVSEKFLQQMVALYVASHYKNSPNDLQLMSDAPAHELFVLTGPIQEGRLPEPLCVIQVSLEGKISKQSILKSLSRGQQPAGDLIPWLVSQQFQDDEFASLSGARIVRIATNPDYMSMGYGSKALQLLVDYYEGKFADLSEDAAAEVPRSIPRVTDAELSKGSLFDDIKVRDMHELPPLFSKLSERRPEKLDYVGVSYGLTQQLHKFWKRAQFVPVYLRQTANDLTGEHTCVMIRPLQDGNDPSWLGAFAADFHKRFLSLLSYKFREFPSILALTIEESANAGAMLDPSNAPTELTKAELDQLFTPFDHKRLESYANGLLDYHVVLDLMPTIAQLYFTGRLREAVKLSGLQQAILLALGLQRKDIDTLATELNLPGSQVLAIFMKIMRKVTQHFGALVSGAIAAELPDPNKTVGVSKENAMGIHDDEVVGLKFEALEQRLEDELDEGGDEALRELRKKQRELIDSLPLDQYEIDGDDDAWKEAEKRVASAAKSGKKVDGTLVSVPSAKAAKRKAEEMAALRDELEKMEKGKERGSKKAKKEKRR

CtNAT10 WT [4] = molecular target: T2, CtNAT10 WT (Chaetomium thermophilum, UniProt G0S273 1-1073); assay: EMSA; 0.5 mM ATP, 0.1 mM acetyl-CoA; 50 mM Hepes-KOH pH 7.6, 90 mM NaCl (Fig 1B) or 75 mM NaCl + 0.2 mg/ml BSA (Fig S4A), 12 mM KCl, 10 mM MgCl2, 1 mM DTT, 0.5 mM ATP, 0.1 mM acetyl-CoA; Fig 1B 15; settings: protein: recombinant; tags: N-terminal 6xHis; chain copies: 2; tRNA fold
T2 sequence: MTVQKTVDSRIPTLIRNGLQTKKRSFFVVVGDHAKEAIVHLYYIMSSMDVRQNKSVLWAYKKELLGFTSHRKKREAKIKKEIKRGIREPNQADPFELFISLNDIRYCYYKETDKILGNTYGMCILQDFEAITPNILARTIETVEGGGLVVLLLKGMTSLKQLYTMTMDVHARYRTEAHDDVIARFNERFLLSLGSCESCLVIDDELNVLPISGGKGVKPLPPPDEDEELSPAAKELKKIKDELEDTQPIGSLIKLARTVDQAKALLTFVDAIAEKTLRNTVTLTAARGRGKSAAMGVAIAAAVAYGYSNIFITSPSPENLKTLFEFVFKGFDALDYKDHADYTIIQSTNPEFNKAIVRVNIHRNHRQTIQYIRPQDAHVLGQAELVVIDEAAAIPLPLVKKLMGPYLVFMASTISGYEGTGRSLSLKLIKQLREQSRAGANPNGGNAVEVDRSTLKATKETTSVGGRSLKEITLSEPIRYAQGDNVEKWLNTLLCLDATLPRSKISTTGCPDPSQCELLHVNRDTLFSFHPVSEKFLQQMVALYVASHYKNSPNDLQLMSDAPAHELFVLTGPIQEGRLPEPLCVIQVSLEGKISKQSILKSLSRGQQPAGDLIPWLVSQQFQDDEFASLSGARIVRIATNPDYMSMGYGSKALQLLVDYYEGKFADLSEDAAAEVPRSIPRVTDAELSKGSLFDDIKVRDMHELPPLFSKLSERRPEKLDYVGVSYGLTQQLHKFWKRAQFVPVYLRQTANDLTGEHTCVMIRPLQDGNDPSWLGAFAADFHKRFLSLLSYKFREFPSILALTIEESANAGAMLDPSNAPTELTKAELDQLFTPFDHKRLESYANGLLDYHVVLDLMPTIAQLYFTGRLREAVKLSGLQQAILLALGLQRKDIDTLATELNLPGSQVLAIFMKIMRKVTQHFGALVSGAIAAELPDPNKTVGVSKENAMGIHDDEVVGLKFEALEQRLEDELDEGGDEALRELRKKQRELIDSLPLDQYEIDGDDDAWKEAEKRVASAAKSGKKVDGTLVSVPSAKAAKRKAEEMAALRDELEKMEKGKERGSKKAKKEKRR

CtNAT10 WT [5] = molecular target: T2, CtNAT10 WT; assay: EMSA; no THUMPD1; 0.5 mM ATP, 0.1 mM acetyl-CoA; 50 mM Hepes-KOH pH 7.6, 90 mM NaCl (Fig 1B) or 75 mM NaCl + 0.2 mg/ml BSA (Fig S4A), 12 mM KCl, 10 mM MgCl2, 1 mM DTT, 0.5 mM ATP, 0.1 mM acetyl-CoA; Fig 1B 15; settings: protein: recombinant; tags: N-terminal 6xHis; chain copies: 2; tRNA fold

“Chaetomium thermophilum NAT10 (CtNAT10), E. coli-produced recombinant (enzyme)” showed a stoichiometry N [1] of 2.

“Chaetomium thermophilum NAT10 (CtNAT10), Sf9-produced recombinant (enzyme)” gave a stoichiometry N [2] of 2.

Nc1ncnc2c1ncn2[C@@H]1O[C@H](COP(=O)(O)OP(=O)(O)OP(=O)(O)O)[C@@H](O)[C@H]1O [ATP] showed a Tm ([3]; ligand series 0.25-2500 μM) of 53.8 ± 0.1 °C.

CC(C)(COP(=O)(O)OP(=O)(O)OC[C@H]1O[C@@H](n2cnc3c(N)ncnc32)[C@H](O)[C@@H]1OP(=O)(O)O)[C@@H](O)C(=O)NCCC(=O)NCCSCC(=O)Nc1ccn([C@@H]2O[C@H](CO)[C@@H](O)[C@H]2O)c(=O)n1 [cytidine-amide-CoA] showed a Tm ([3]; ligand series 0.20-2000 μM) of 46.4 ± 0.1 °C.

Work on CC(=O)SCCNC(=O)CCNC(=O)[C@H](O)C(C)(C)COP(=O)(O)OP(=O)(O)OC[C@H]1O[C@@H](n2cnc3c(N)ncnc32)[C@H](O)[C@@H]1OP(=O)(O)O [acetyl-CoA] yielded a Tm ([3]; ligand series 0.25-2500 μM) of 46.1 ± 0.1 °C.

B1: ct-tRNASer (synthetic) (structured_RNA)
RNA: GACAACUUGGCCGAGUGGUUAAGGCGACAGACUUGAAAUCUGUUGGGUUCGCCCUCACAGGUUCGAAUCCUGUAGUUGUCG
B1: binds (CtNAT10 WT [4]).

B2: ct-tRNALeu (synthetic) (structured_RNA)
RNA: GGCAAGAUGGCCGAGCGGUCCAAGGCGCCAGGUUCAGGUCCUGGUCUCCGCAAGGGGGCGUGAGUUCGAAUCUCACUCUUGUCA
B2: binds (CtNAT10 WT [4]).

B3: CttRNAAla (IVT) (structured_RNA)
RNA: GGGCGUGUAGCUCAGUUGGUAGAGCGUUCGCUUAGCAUGCGAGAGGUCCUGGGUUCGAUUCCCAGCCCGUCCA
B3: binds (CtNAT10 WT [5]).
